In article PMC3431237:

How the values were obtained:
[1] = biological target: T1, PbrR (Cupriavidus metallidurans CH34 (plasmid pMOL30)) (UniProt Q58AJ5); test: EMSA; details: not given in material (gel retardation and DNase I protection as in cited refs 36 and 37)
T1 sequence: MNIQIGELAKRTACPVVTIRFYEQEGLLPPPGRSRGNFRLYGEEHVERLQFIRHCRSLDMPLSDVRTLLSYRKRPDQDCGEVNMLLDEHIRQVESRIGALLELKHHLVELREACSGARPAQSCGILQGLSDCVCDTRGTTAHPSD

[2] = biological target: T1, PbrR (Cupriavidus metallidurans CH34 (plasmid pMOL30)); test: DNase I footprinting; details: not given in material (gel retardation and DNase I protection as in cited refs 36 and 37)

GCGAATGGTCACCACCGGGCATGCGGTGCGCTTGGCAAGCTCGCCGATCTGGATATTCATGGCGTCGGATGGGAGATGTCTTGACTCTATAGTAACTAGAGGGTGTTAAATCGGCAACGCGAGATGAATACACACAAGGGGTTGCCATGAGCGAATGTGGCTCGAAGGGATGTGGCTGCGCTTCCGTTGCGACGCGCAACCCAGAACCGAGCACGGTTGGCGCGGGGCTGAAGCAGGCGCGCTACCGAATCGAAAACATGGACTGTCCGACCGAAGAGGCGCTGATTCGCGACAAGC (double strand) [PpbrA 296 bp PCR product]
binding [1]: binds | binding [2]: binds
